Data: article PMC10794413

Target: Hsp90 (hsp82 gene from Saccharomyces cerevisiae) with a C-terminal coiled-coil domain (Saccharomyces cerevisiae)

B1: free Cdc37 with the S14E phosphomimic (natural protein)
chain: MAIDYSKWDKIELEDDSDVEVHPNVDKKSFIKWKQQSIHEQRFKRNQDIKNLETQVDMYSHLNKRVDRILSNLPESSLTDLPAVTKFLNANFDKMEKSKGENVDPEIATYNEMVEDLFEQLAKDLDKEGKDSKSPSLIRDAILKHRAKIDSVTVEAKKKLDELYKEKNAHISSEDIHTGFDSSFMNKQKGGAKPLEATPSEALSSAAESNILNKLAKSSVPQTFIDFKDDPMKLAKETEEFGKISINEYSKSQKFLLEHLPIISEQQKDALMMKAFEYQLHGDDKMTLQVIHQSELMAYIKEIYDMKKIPYLNPMELSNVINMFFEKVIFNKDKPMGKESFLRSVQEKFLHIQKRSKILQQEEMDESNAEGVETIQLKSLDDSTELEVNLPDFNSKDPEEMKKVKVFKTLIPEKMQEAIMTKNLDNINKVFEDIPIEEAEKLLEVFNDIDIIGIKAILENEKDFQSLKDQYEQDHEDATMENLSLNDRDGGGDNHEEVKHTADTVD
- ATPase rate of Hsp90 with freely added Cdc37 and equimolar Ste11: Cdc37's reducing effect is abrogated: 1.1 ATP/min
